Numbered stars: 1 amine (or outer) side, 2 acyl side, 3 side chain; on linkers, the order of the positions; unused ones are H or OH. Bridge positions count the residues as written; N and C are the ends. Square brackets hold non-standard residues; d marks the D form. Ends that are not written are not given here. 1Nal = N[C@@H](Cc1cccc2ccccc12)C(=O)O; TBMB = c1c(C[*:1])cc(C[*:3])cc1C[*:2]; hArg = N=C(N)NCCCC[C@H](N)C(=O)O; Tle = CC(C)(C)[C@H](N)C(=O)O; Aib = CC(C)(N)C(=O)O; βAla = NCCC(=O)O; Sar = CNCC(=O)O
Assays:
[1] = target: T1, Human EphA2 (Ecto) (Human, UniProt P29317 24-537); experiment: FP competition; competitor Compound 66
T1 construct: extracellular domain
T1 sequence (P29317 24-537): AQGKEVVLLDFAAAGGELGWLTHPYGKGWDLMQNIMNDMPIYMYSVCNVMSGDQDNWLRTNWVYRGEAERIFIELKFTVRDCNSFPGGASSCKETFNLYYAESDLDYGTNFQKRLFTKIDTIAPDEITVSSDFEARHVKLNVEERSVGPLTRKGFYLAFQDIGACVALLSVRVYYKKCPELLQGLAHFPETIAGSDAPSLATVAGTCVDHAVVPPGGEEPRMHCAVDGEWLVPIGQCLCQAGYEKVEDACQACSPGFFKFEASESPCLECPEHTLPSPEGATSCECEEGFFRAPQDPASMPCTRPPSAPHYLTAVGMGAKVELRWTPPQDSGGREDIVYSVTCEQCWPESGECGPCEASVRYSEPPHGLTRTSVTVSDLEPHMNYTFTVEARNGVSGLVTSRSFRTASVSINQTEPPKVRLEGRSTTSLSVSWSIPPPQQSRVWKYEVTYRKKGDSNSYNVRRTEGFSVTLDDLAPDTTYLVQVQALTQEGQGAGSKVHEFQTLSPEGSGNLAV
Description: Peptides without a fluorescent tag were tested in competition with a peptide with a fluorescent tag and a known Kd (Table 2). Peptides were diluted to an appropriate concentration in assay buffer as described in the direct binding assay with a maximum of 5% DMSO, then serially diluted 1 in 2. Five μL of diluted peptide was added to the plate followed by 10 μL of human or mouse EphA2 (Table 1) at a fixed concentration which was dependent on the fluorescent peptide used (Table 2), then 10 μL fluorescent peptide added. Measurements were conducted as for the direct binding assay, however the gain was determined prior to the first measurement.

[2] = target: T1, Human EphA2 (Ecto); experiment: FP competition; competitor Compound 18
[3] = target: T1, Human EphA2 (Ecto); experiment: FP competition; competitor Compound 18; remark: listed apart in the source

Ki [1] [nM] | Ki [2] [nM] | Ki [3] [nM] | Binder
– | – | 1.07 | [βAla][Sar][Sar][Sar][Sar][Sar][Sar][Sar][Sar][Sar][Sar]H[dD]VPCP[1Nal]G[Aib]F[1Nal]CP[Tle]N[hArg]PGC (linker 16-23-30 via TBMB) [Compound 257]
– | – | 1.93 | [βAla][Sar][Sar][Sar][Sar][Sar][Sar][Sar][Sar][Sar][Sar]H[dD]VPCP[1Nal]G[Aib][hArg][1Nal]CP[Tle]N[hArg]P[dD]C (linker 16-23-30 via TBMB) [Compound 251]
– | – | 3.94 | [βAla][Sar][Sar][Sar][Sar][Sar][Sar][Sar][Sar][Sar][Sar]H[dD]VPC[Aib][1Nal]G[Aib]F[1Nal]CP[Tle]NRPGC (linker 16-23-30 via TBMB) [Compound 234]
– | – | 1.34 | [dD]VTCP[1Nal]G[Aib]F[1Nal]CP[Tle]NR[Aib]GC (linker 4-11-18 via TBMB) [Compound 186]
– | – | 29.7 | [βAla][Sar][Sar][Sar][Sar][Sar][Sar][Sar][Sar][Sar][Sar]H[dD]VPC[Aib]WGP[hArg]WCP[Tle]N[hArg]P[dD]C (linker 16-23-30 via TBMB) [Compound 247]
– | – | 28.4 | [βAla][Sar][Sar][Sar][Sar][Sar][Sar][Sar][Sar][Sar][Sar]H[dD]VPC[dA][1Nal]G[Aib]F[1Nal]CP[Tle]N[hArg]P[dD]C (linker 16-23-30 via TBMB) [Compound 248]
– | – | 2.4 | {Ac-βAla}-[Sar][Sar][Sar][Sar][Sar][Sar][Sar][Sar][Sar][Sar]H[dD]VPC[Aib][1Nal]G[Aib]F[1Nal]CP[Tle]N[hArg]P[dD]C (linker 15-22-29 via TBMB) [Compound 237]
– | – | 2.8 | [βAla][Sar][Sar][Sar][Sar][Sar][Sar][Sar][Sar][Sar][Sar]H[dD]VPC[Aib][1Nal]GP[hArg][1Nal]CP[Tle]N[hArg]P[dD]C (linker 16-23-30 via TBMB) [Compound 244]
– | – | 2.83 | [βAla][Sar][Sar][Sar][Sar][Sar][Sar][Sar][Sar][Sar][Sar]H[dD]VPC[Aib][1Nal]GP[hArg][1Nal]CP[Tle]NR[Aib]GC (linker 16-23-30 via TBMB) [Compound 243]
– | – | 2.83 | [βAla][Sar][Sar][Sar][Sar][Sar][Sar][Sar][Sar][Sar][Sar]H[dD]VPC[Aib][1Nal]G[Aib]F[1Nal]CP[Tle]N[hArg][Aib][dD]C (linker 16-23-30 via TBMB) [Compound 238]
– | – | 4.91 | [βAla][Sar][Sar][Sar][Sar][Sar][Sar][Sar][Sar][Sar][Sar]H[dD]VPC[Aib][1Nal]G[Aib]F[1Nal]CP[Tle]NR[Aib]GC (linker 16-23-30 via TBMB) [Compound 239]
– | – | 1.19 | Ac-[Sar][Sar]A[dD]VTCP[1Nal]G[Aib]F[1Nal]CP[Tle]N[hArg]P[dD]C (linker 7-14-21 via TBMB) [Compound 184]
– | – | 2.58 | [βAla][Sar][Sar][Sar][Sar][Sar][Sar][Sar][Sar][Sar][Sar]H[dD]VPC[Aib][1Nal]G[Aib]F[1Nal]CP[Tle]N[hArg]PGC (linker 16-23-30 via TBMB) [Compound 235]
– | – | 1.48 | [βAla][Sar][Sar][Sar][Sar][Sar][Sar][Sar][Sar][Sar][Sar]H[dD]VPCP[1Nal]G[Aib][hArg][1Nal]CP[Tle]NR[Aib][dD]C (linker 16-23-30 via TBMB) [Compound 250]
– | – | 0.9 | Ac-[Sar][Sar]A[dH]DVPCP[1Nal]G[Aib]F[1Nal]CP[Tle]NR[Aib]GC (linker 8-15-22 via TBMB) [Compound 232]
– | – | 31.4 | [βAla][Sar][Sar][Sar][Sar][Sar][Sar][Sar][Sar][Sar][Sar]H[dD]VPC[Aib]WGP[hArg]WCP[Tle]N[hArg]P[dD]C (linker 16-23-30 via TBMB) [Compound 246]
– | – | 1.38 | [βAla][Sar][Sar][Sar][Sar][Sar][Sar][Sar][Sar][Sar][Sar]H[dD]VPCP[1Nal]G[Aib][hArg][1Nal]CP[Tle]NR[Aib]GC (linker 16-23-30 via TBMB) [Compound 249]
– | – | 1.93 | Ac-[Sar][Sar]A[dH]DVPCP[1Nal]G[Aib]F[1Nal]CP[Tle]N[hArg]PGC (linker 8-15-22 via TBMB) [Compound 231]
– | – | 0.85 | Ac-[Sar][Sar]H[dD]VPCP[1Nal]G[Aib]F[1Nal]CP[Tle]N[hArg]PGC (linker 7-14-21 via TBMB) [Compound 253]
– | – | 2.98 | {Ac-βAla}-[Sar][Sar][Sar][Sar][Sar][Sar][Sar][Sar][Sar][Sar]H[dD]VPC[Aib][1Nal]G[Aib]F[1Nal]CP[Tle]NR[Aib][dD]C (linker 15-22-29 via TBMB) [Compound 241]
– | – | 7.77 | [βAla][Sar][Sar][Sar][Sar][Sar][Sar][Sar][Sar][Sar][Sar]H[dD]VPC[Aib][1Nal]G[Aib]FWCP[Tle]N[hArg]P[dD]C (linker 16-23-30 via TBMB) [Compound 242]

Further lines, the binder ahead of its results:

Binder | Ki [1] [nM] | Ki [2] [nM] | Ki [3] [nM]
[Sar][Sar]ACP[1Nal]GPFWCPV[dA][hArg]PGC (linker 4-11-18 via TBMB) [Compound 133] | 3.7 | 14 | –
[Sar][Sar]ACP[1Nal]GPFWCP[Tle][dA]RPGC (linker 4-11-18 via TBMB) [Compound 129] | 15 | 23 | –
Ac-[Sar][Sar]A[dD]VTCP[1Nal]G[Aib]F[1Nal]CP[Tle]N[hArg]PGC (linker 7-14-21 via TBMB) [Compound 182] | – | – | 1.16
[Sar][Sar]ACP[1Nal]GPFWCP[Tle]NR[Aib]GC (linker 4-11-18 via TBMB) [Compound 131] | 6.8 | 11 | –
[Sar][Sar]ACP[1Nal]GPFWCPVN[hArg]P[dA]C (linker 4-11-18 via TBMB) [Compound 134] | 6.15 | 1.2 | –
[Sar][Sar]ACP[1Nal]G[Aib]FWCP[Tle]NRPGC (linker 4-11-18 via TBMB) [Compound 126] | 19 | 15 | –
Ac-[Sar][Sar]A[dD]VTCP[1Nal]G[Aib]F[1Nal]CP[Tle]NR[Aib]GC (linker 7-14-21 via TBMB) [Compound 183] | – | – | 1.02
ADVHCPWGPFWCPVNRPGCA (linker 5-12-19 via TBMB) [Compound 57] | 1.2 | 0.48 | –
ADVTCPWGPFWCPVNRPGCA (linker 5-12-19 via TBMB) [Compound 58] | 2.65 | 1.35 | –
[Sar][Sar]ACP[1Nal]G[Aib]FWCPV[dA]RPGC (linker 4-11-18 via TBMB) [Compound 127] | 33 | 40 | –
[Sar][Sar]ACP[1Nal]G[Aib]FWCP[Tle]N[hArg]PGC (linker 4-11-18 via TBMB) [Compound 136] | 15 | 23 | –
[Sar][Sar]ACP[1Nal]GPFWCP[Tle]NRP[dA]C (linker 4-11-18 via TBMB) [Compound 132] | 8.7 | 7.7 | –
AEGLPCPWGPFWCPVNRPGCA (linker 6-13-20 via TBMB) [Compound 55] | 6.15 | 11.3 | –
[Sar][Sar]AC[Aib][1Nal]G[Aib]FWCPVNR[Aib]GC (linker 4-11-18 via TBMB) [Compound 135] | 30 | 43 | –
[Sar][Sar]ACP[1Nal]G[Aib]FWCPVNRP[dA]C (linker 4-11-18 via TBMB) [Compound 128] | 16 | 15 | –
